Experimental findings from the supplement of paper PMC9170038 are described below.

This data set relates to MS2 coat protein. Kind of data set: apparent KD of MS2 coat protein; designed switch direction (-1 OFF switch, 1 ON switch): -1; higher = weaker reporter binding. In short, it runs like this:
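SNAP-549-labelled MS2 coat protein was titrated, doubling from 0.7 or 1.5 nM to 3 µM, over designed RNA switches transcribed on Illumina chips by stalled E. coli RNA polymerase. Runs were done without input, with 200 uM small-molecule ligand, or with an oligonucleotide input. Apparent KD is the per-design median over clusters of curve-fitted normalised fluorescence.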

[1] abbreviates: input ligand: microRNA oligo, concentration not stated.
Where [2] appears, read: Eterna round: R95, input ligand: microRNA oligo, concentration not stated.
Where [3] appears, read: Eterna round: R95, input ligand: FMN 200 uM.
The mark [4] stands for this setting: Eterna round: R95, input ligand: none.

In the case of “ACAUGUCAUUGAGGAUAUUGCAAACAUGAGGAUCACCCAUGUAAACGGAUGCUCUUACGUGGGUUCGAGAAGGCGAUGUACAUU [Ex NG2 #93] (Eterna round: R96, puzzle: Exclusion NG 2)”, the “apparent KD of MS2 coat protein” value (input ligand: FMN 200 uM) was 930 nM, the “apparent KD of MS2 coat protein” value under setting [1] is 39.8 nM and the “apparent KD of MS2 coat protein” value (input ligand: none) was 242 nM.

In the case of “GAUCCGUUAGGAUAUCGUGAGGACAGCUAGUCUUAUUAACACGAGAAGGAACAUGAGGAUCACCCAUGUGGUAA [Eternabot (L1) Solution 14] (Eterna round: R97, puzzle: Exclusion 4)”, the “apparent KD of MS2 coat protein” value is, setting by setting: (input ligand: FMN 200 uM) 279 nM; (input ligand: none) 62.3 nM.

With “CGACCCAUCAUAGGAUAUCACAGCACGGGAGAAAGUCUGAGGCGUCAACAUGAGGAUCACCCAUGUGAGAAGGAUGGUGGGCAG [Eternabot solution 17] (Eterna round: R96, puzzle: Exclusion NG 2)”, the “apparent KD of MS2 coat protein” value runs as follows: (input ligand: FMN 200 uM) 120 nM; under setting [1], 184 nM; (input ligand: none) 162 nM.

Consider “UCUUAUUGCAAGGAUAUGCUAUUUAUUUUUUUUGCAGAAGGUGCAACAUGAGGAUCACCCAUGUUUCCGGGCAU [JR_E6_Sub036] (puzzle: Exclusion 6)”, for which, under setting [2], the “apparent KD of MS2 coat protein” value turned out to be 20.3 nM.

For “GAUCAUGCAGGAUAUGCAGUAACCAUGAAAACAUGGUUGCAACAUGAGGAUCACCCAUGUAGAAGGGCAUGAUC [Omei Ex2 A3] (Eterna round: R97, puzzle: Exclusion 2)”, the “apparent KD of MS2 coat protein” value by setting is: (input ligand: FMN 200 uM) 10.8 nM; (input ligand: none) 13.9 nM.

For “UAAUGUGCGAGAGGAUAUCGUGUACAAAGUACACGAGAAGGCUUCACAUGAGGAUCACCCAUGUAUCGAGGUGAAACACCUUGG [Omei Exc(NG)1 Bv2] (Eterna round: R96, puzzle: Exclusion NG 1)”, the “apparent KD of MS2 coat protein” value reads like this: (input ligand: FMN 200 uM) 703 nM; under setting [1], 285 nM; (input ligand: none) 318 nM.

Regarding “UAGUUAAACACAGGAUAUCGCCUCUUAUUACAUGAGGAUCACCCAUGUUUAGUUAGUUACAUGUUCGAGAAGGGUGAAGUAGUU [JR_ExcNG2_Sub041] (Eterna round: R96, puzzle: Exclusion NG 2)”, the “apparent KD of MS2 coat protein” value (input ligand: FMN 200 uM) was determined as 793 nM, the “apparent KD of MS2 coat protein” value under setting [1] amounted to 1300 nM and the “apparent KD of MS2 coat protein” value (input ligand: none) was 555 nM.

For “UCGAGGUCAGGAUAUACAUGAGGAUCACCCAUGUUGAGAUAAGGUAGGAAAAGAGUAGGUAGAAGGGACGAGAG [JR_Exclu3_Sub047] (puzzle: Exclusion 3)”, the “apparent KD of MS2 coat protein” value under setting [2] is 27.3 nM.

As to “CGUGCGUAUGUGAGGAUAUGCUGGUCCUUGGAUCGGCAGAAGGCACAUGAGGAUCACCCAUGUGGUGUCGUUCG [salish99_Bmod_ex4_093] (puzzle: Brourd's mod of Exclusion 4)”, under setting [2], the “apparent KD of MS2 coat protein” value turned out to be 126 nM.

Turning to “AAAUAACAAGCGAGAUCCUACAUGAGGAUCACCCAUGUGCUCGUCUUAACAAGUACUAUCACGAAAGUGAUAGUACA [Mat - Sensor v3 - turn-off var 1 - Eli Mod - D69] (puzzle: Sensor v3, turn-off variant 1)”, the “apparent KD of MS2 coat protein” value under setting [3] was 17.5 nM, the “apparent KD of MS2 coat protein” value under setting [2] was 59.4 nM and the “apparent KD of MS2 coat protein” value under setting [4] came to 12.1 nM.

In the case of “UGUUGUUACGUAGGAUAUCCACCAACAGGUGGAAGGAUAUGUACGCAGAAGGUUCGCCAACAGGCGGAGAAGGACGGGUUAACA [pwkr exNG2 2xF7 2xFMN.27] (Eterna round: R96, puzzle: Exclusion NG 2)”, the “apparent KD of MS2 coat protein” value (input ligand: FMN 200 uM) came to 1370 nM, the “apparent KD of MS2 coat protein” value under setting [1] was 473 nM and the “apparent KD of MS2 coat protein” value (input ligand: none) came out at 300 nM.

For “CUUCGUAUAGAGGAUAUAGGUUACCUCGGUAUCCUAGAAGGCUGUACAUGAGGAUCACCCAUGUACUUCAGAUC [Exclusion 6 - B - 13:b] (puzzle: Exclusion 6)”, under setting [2], the “apparent KD of MS2 coat protein” value worked out at 12.7 nM.

Consider “GCUCCAGGAGGAUAUGCAUUCGAAAACAUGAGGAUCACCCAUGUAGGUGUCCACGUGCGAGCAGAAGGCCUAAAAC [Riqu] (Eterna round: R97, puzzle: Exclusion 5)”, for which the “apparent KD of MS2 coat protein” value reads like this: (input ligand: FMN 200 uM) 286 nM; (input ligand: none) 646 nM.

Consider “GGUUCACGAGGAUAUCGAUUUUAGUACAUGAGGAUCACCCAUGUUGUCCAGGUUUCGAUUCGAGAAGGCGUGAACC [LRO-Ex5-04] (puzzle: Exclusion 5)”, for which, under setting [2], the “apparent KD of MS2 coat protein” value is 20.8 nM.

With “CCGCAAAAUGAGGAUAUCGUAUCGGAUACGAUACGAGAAGGCGUAACAUGAGGAUCACCCAUGUGUCCUAGCGG [Fiskers Ex 6 - 35] (puzzle: Exclusion 6)”, under setting [2], the “apparent KD of MS2 coat protein” value was 13.5 nM.

Regarding “UCAAUUUUGCGAGGAUAUCGACCAUUCCUCUUUACAUGAGGAUCACCCAUGUACUUAUUCUACAACGAGAAGGCGCUCAUAGUU [JR_ExcNG2_Sub064] (Eterna round: R96, puzzle: Exclusion NG 2)”, the “apparent KD of MS2 coat protein” value under setting [1] was 30 nM.

For “CGUCUGUCAGGAUAUACUUACGUAGACAUGAGGAUCACCCAUGUGACGUGGGACUAGUGAGUAGAAGGGACGAACA [EX5 #74] (Eterna round: R97, puzzle: Exclusion 5)”, the “apparent KD of MS2 coat protein” value (input ligand: FMN 200 uM) was 68.4 nM and the “apparent KD of MS2 coat protein” value (input ligand: none) turned out to be 46.7 nM.

For “ACGAUGACCGAAAAGUGUUAACUGACAUGAGGAUCACCCAUGUAGGAUAUGGCUACGAAAAGUAGUCAGAAGGGCAUGUCAUCA [Omei Exc(NG) 3 Av8] (Eterna round: R96, puzzle: Exclusion NG 3)”, the “apparent KD of MS2 coat protein” value by setting is: (input ligand: FMN 200 uM) 27 nM; under setting [1], 18.7 nM; (input ligand: none) 27.3 nM.

Turning to “GCUAAGGUAGGAUAUUGCGACGUGAACAUGAGGAUCACCCAUGUCUGGUCUGACAGGCAUCAAGAAGGGCCAGUCU [Eternabot (L2) Solution 30] (Eterna round: R97, puzzle: Exclusion 5)”, the “apparent KD of MS2 coat protein” value (input ligand: FMN 200 uM) was found to be 49.7 nM and the “apparent KD of MS2 coat protein” value (input ligand: none) came to 62.7 nM.

Take “ACUGACAUGAGGAUCACCCAUGUAGAUGUGUUCGCAAGCCUCUAGGAUAUAUCUAACCUACCCGGAUAGAAGGAGAGGUUCCCU [Eternabot solution 9] (Eterna round: R96, puzzle: Exclusion NG 3)”: the “apparent KD of MS2 coat protein” value was determined as 25.2 nM (input ligand: FMN 200 uM), 21.1 nM under setting [1] and 31.7 nM (input ligand: none).

As to “CUCGGACAUGAGGAUCACCCAUGUGAGGAUAUGAUGCGAUCGUCGAAAGACGAUAGCAUCAGAAGGUACAAAUG [Fiskers Ex 1 - 22] (puzzle: Exclusion 1)”, the “apparent KD of MS2 coat protein” value under setting [2] is 55.6 nM.

With “AUCCUGUCAGGAUAUCUAGUUAAAUACAUGAGGAUCACCCAUGUCACUGGGCCGUCCUUAAGAGAAGGGACAGGCG [Edabe] (puzzle: Exclusion 5)”, the “apparent KD of MS2 coat protein” value was determined as 169 nM under setting [3], 34.5 nM under setting [2] and 39.7 nM under setting [4].

In the case of “UUGUUCUGAGGAUAUACAUGAGGAUCACCCAUGUGUUUCAGCUAGGAGACUAGCGAAAGUAGAAGGCUGUACUC [salish99_ex3_r4_017] (Eterna round: R97, puzzle: Exclusion 3)”, the “apparent KD of MS2 coat protein” value runs as follows: (input ligand: FMN 200 uM) 26.9 nM; (input ligand: none) 24.9 nM.

Regarding “UUAUCUACUGAGGAUAUUAUAUCACCCGACUGAUAAGAAGGCAGUACAUGAGGAUCACCCAUGUGGGUAGCCAU [Polaris10] (Eterna round: R97, puzzle: Exclusion 6)”, the “apparent KD of MS2 coat protein” value runs as follows: (input ligand: FMN 200 uM) 43 nM; (input ligand: none) 32.6 nM.

On to “CUUUUGUGAGGAUAUUAGUAGUAAAUAAUUAAAAUUACUACUGAGAAGGCACAUGAGGAUCACCCAUGUUCCUC [salish99_ex4_r3_056] (puzzle: Exclusion 4)”, for which, under setting [2], the “apparent KD of MS2 coat protein” value was 35.2 nM.

As to “CCCAGAUAGGAAGGAUAUUGUACAUGAGGAUCACCCAUGUAAUAAAUGAGGAUCACGGAUGUAGACAAGAAGGUCCGGAUAGGC [Ostracism 7 - Jieux - Exclusion NG 2] (Eterna round: R96, puzzle: Exclusion NG 2)”, the “apparent KD of MS2 coat protein” value (input ligand: FMN 200 uM) was determined as 108 nM, the “apparent KD of MS2 coat protein” value under setting [1] amounted to 42.5 nM and the “apparent KD of MS2 coat protein” value (input ligand: none) was determined as 50.2 nM.

As for “GGGCUGUCAGGAUAUGUGUGUGUGUGUGAAAGCGCGCGCGCGCAGAAGGGACAUGAGGAUCACCCAUGUGGCCC [-35.3, -34.3 kcal, A 20%, 6bis-0] (Eterna round: R97, puzzle: Exclusion 4)”, the “apparent KD of MS2 coat protein” value runs as follows: (input ligand: FMN 200 uM) 32.1 nM; (input ligand: none) 33 nM.

As to “UAAUGCAAGCAAAGAUCUUACAUGAGGAUCACCCAUGUGCUCGUCUUAUAAAGUACUAUCACGAAAGUGAUAGUACU [Mat - Sensor v3 - turn-off var 1 - Eli Mod - D92] (puzzle: Sensor v3, turn-off variant 1)”, the “apparent KD of MS2 coat protein” value worked out at 31.5 nM under setting [3], 129 nM under setting [2] and 25.2 nM under setting [4].

Regarding “AAGUCGACGGUGAGGAUAUAGGUCGAACGACAGAUCUAGAAGGUACAUGAGGAUCACCCAUGUGGGUAACGUCG [Brourd's EX4 #35] (Eterna round: R97, puzzle: Brourd's mod of Exclusion 4)”, the “apparent KD of MS2 coat protein” value runs as follows: (input ligand: FMN 200 uM) 36.8 nM; (input ligand: none) 32.4 nM.

Take “AGGUAACAUGAGGAUCACCCAUGUCAGGAUAUCAUGAAGAGUAGAUUAGAGGAGAGGUUGAGAAGGGACUAUAU [Excluse me! 15 - Jieux - Exclusion 1] (puzzle: Exclusion 1)”: under setting [2], the “apparent KD of MS2 coat protein” value came out at 38.5 nM.

Take “AGUAACUAUCACGAAAGUGAUAGUUACAAACAAGUGGAAACAUGAGGAUCACCCAUGUCCUCAUUUGCUCGUCUUAU [Sensor 3 - 6] (puzzle: Sensor v3, turn-off variant 2)”: the “apparent KD of MS2 coat protein” value under setting [3] is 574 nM, the “apparent KD of MS2 coat protein” value under setting [2] was 556 nM and the “apparent KD of MS2 coat protein” value under setting [4] was 503 nM.
